Data reported in the Immune Epitope Database (IEDB).
One block for each sequence: values may come before it.

Experiments:
HLA-B*08:01 [1] = assay: IEDB peptide-MHC binding, purified MHC/competitive/fluorescence; ≥ and ≤ were set here for values at or beyond the usual limits of such assays
HLA-A*02:01 [2] = assay: as above; settings: source organism: Zaire ebolavirus
HLA-C*15:02 = assay: IEDB peptide-MHC binding, purified MHC/direct/fluorescence; filed as Kd, often an IC50 or EC50 that approximates it; ≥ and ≤ were set here for values at or beyond the usual limits of such assays
HLA-B*58:01 [3] = assay: IEDB peptide-MHC binding, purified MHC/competitive/fluorescence; filed as Kd, often an IC50 or EC50 that approximates it; ≥ and ≤ were set here for values at or beyond the usual limits of such assays
HLA-A*11:01 [4] = assay: IEDB peptide-MHC binding, purified MHC/direct/fluorescence; filed as Kd, often an IC50 or EC50 that approximates it; ≥ and ≤ were set here for values at or beyond the usual limits of such assays
HLA-A*26:01 [5] = assay: as above
HLA-A*69:01 [6] = assay: as above
HLA-A*03:01 [7] = assay: as above
HLA-B*08:01 [8] = assay: as above
HLA-A*24:03 [9] = assay: as above
HLA-B*27:05 = assay: as above
HLA-B*40:01 = assay: as above
HLA-B*44:02 = assay: as above
HLA-A*01:01 [10] = assay: as above
HLA-A*02:01 [11] = assay: as above
HLA-A*30:01 = assay: as above
HLA-B*58:01 [12] = assay: as above
HLA-B*15:01 [13] = assay: as above
HLA-B*07:02 [14] = assay: as above
HLA-A*31:01 = assay: as above
HLA-A*24:03 [15] = assay: IEDB peptide-MHC binding, purified MHC/competitive/fluorescence; filed as Kd, often an IC50 or EC50 that approximates it; ≥ and ≤ were set here for values at or beyond the usual limits of such assays
HLA-A*03:01 [16] = assay: as above; settings: source organism: Escherichia coli B171
HLA-A*01:01 [17] = assay: as above; settings: source organism: Escherichia coli B171
HLA-B*15:01 [18] = assay: as above
HLA-A*03:01 [19] = assay: IEDB peptide-MHC binding, purified MHC/competitive/fluorescence; ≥ and ≤ were set here for values at or beyond the usual limits of such assays
HLA-B*15:01 [20] = assay: as above
HLA-B*07:02 [21] = assay: as above
HLA-A*11:01 [22] = assay: as above; settings: source organism: Zaire ebolavirus
HLA-A*24:02 = assay: as above; settings: source organism: Zaire ebolavirus
HLA-B*39:01 = assay: IEDB peptide-MHC binding, purified MHC/competitive/fluorescence; filed as Kd, often an IC50 or EC50 that approximates it; ≥ and ≤ were set here for values at or beyond the usual limits of such assays
HLA-B*51:01 = assay: as above
HLA-C*05:01 = assay: IEDB peptide-MHC binding, purified MHC/direct/fluorescence; filed as Kd, often an IC50 or EC50 that approximates it; ≥ and ≤ were set here for values at or beyond the usual limits of such assays
HLA-B*46:01 [23] = assay: as above; settings: source organism: Giardia lamblia ATCC 50803
HLA-A*26:01 [24] = assay: IEDB peptide-MHC binding, purified MHC/competitive/fluorescence; filed as Kd, often an IC50 or EC50 that approximates it; ≥ and ≤ were set here for values at or beyond the usual limits of such assays; settings: source organism: Homo sapiens
HLA-A*69:01 [25] = assay: as above; settings: source organism: Homo sapiens
HLA-B*27:03 = assay: as above; settings: source organism: Homo sapiens
HLA-B*57:01 = assay: as above; settings: source organism: Homo sapiens
HLA-B*46:01 [26] = assay: as above; settings: source organism: Homo sapiens
HLA-B*18:01 = assay: as above; settings: source organism: Homo sapiens
[27] = source organism: Zaire ebolavirus
[28] = source organism: Campylobacter jejuni
[29] = source organism: Campylobacter jejuni RM1221
[30] = source organism: Escherichia coli B171
[31] = source organism: Brucella melitensis
[32] = source organism: Coxiella burnetii
[33] = source organism: Bacillus anthracis str. A2012
[34] = source organism: Pseudomonas aeruginosa
[35] = source organism: Pseudomonas aeruginosa UCBPP-PA14
[36] = source organism: Escherichia coli str. K-12 substr. MG1655
[37] = source organism: Giardia lamblia ATCC 50803
[38] = source organism: Vaccinia virus Copenhagen

Sequence: YQQLREAAT
IC50 (HLA-B*08:01 [1]; [27]): ≥ 183 µM
IC50 (HLA-A*02:01 [2]): 29.7 µM

Kd (HLA-C*15:02; source organism: Homo sapiens): 0.695 µM
Sequence: NAFHHPSAV

Kd (HLA-B*58:01 [3]; source organism: Escherichia coli 536): 0.19 µM
Sequence: IQARPCDRW

Sequence: ALIVAIWDK
Kd (HLA-A*11:01 [4]; [28]): 0.553 µM
Kd (HLA-A*26:01 [5]; [29]): ≥ 20 µM
Kd (HLA-A*69:01 [6]; [29]): ≥ 20 µM
Kd (HLA-A*03:01 [7]; [28]): 2.7 µM
Kd (HLA-B*08:01 [8]; [29]): ≥ 20 µM
Kd (HLA-A*24:03 [9]; [29]): ≥ 20 µM
Kd (HLA-B*27:05; [29]): ≥ 20 µM
Kd (HLA-B*40:01; [29]): ≥ 20 µM
Kd (HLA-B*44:02; [29]): ≥ 20 µM
Kd (HLA-A*01:01 [10]; [29]): ≥ 20 µM
Kd (HLA-A*02:01 [11]; [28]): ≥ 20 µM
Kd (HLA-A*30:01; [28]): 8.54 µM
Kd (HLA-B*58:01 [12]; [29]): ≥ 20 µM
Kd (HLA-B*15:01 [13]; [29]): ≥ 20 µM
Kd (HLA-B*07:02 [14]; [29]): ≥ 20 µM
Kd (HLA-A*31:01; [28]): 11.8 µM

Sequence: EKVQRQIQV
IC50 (HLA-B*08:01 [1]; [27]): ≥ 181 µM

Sequence: KWGKKIILF
Kd (HLA-A*24:03 [15]; source organism: Bacillus anthracis str. A0488): 0.0003 µM

Kd (HLA-A*03:01 [16]): ≥ 20 µM
Kd (HLA-A*01:01 [17]): 0.787 µM
Kd (HLA-B*58:01 [3]; [30]): 1.02 µM
Kd (HLA-B*15:01 [18]; [30]): 0.796 µM
Sequence: VSALRLFNY

Sequence: RLWNGRRCR
Kd (HLA-A*11:01 [4]; [31]): 11.4 µM
Kd (HLA-A*26:01 [5]; [31]): ≥ 20 µM
Kd (HLA-A*69:01 [6]; [31]): ≥ 20 µM
Kd (HLA-A*03:01 [7]; [31]): 0.634 µM
Kd (HLA-B*08:01 [8]; [31]): ≥ 20 µM
Kd (HLA-A*24:03 [9]; [31]): ≥ 20 µM
Kd (HLA-B*27:05; [31]): 2.04 µM
Kd (HLA-B*40:01; [31]): ≥ 20 µM
Kd (HLA-B*44:02; [31]): ≥ 20 µM
Kd (HLA-A*01:01 [10]; [31]): ≥ 20 µM
Kd (HLA-A*02:01 [11]; [31]): ≥ 20 µM
Kd (HLA-A*30:01; [31]): 1.75 µM
Kd (HLA-B*58:01 [12]; [31]): ≥ 20 µM
Kd (HLA-B*15:01 [13]; [31]): ≥ 20 µM
Kd (HLA-B*07:02 [14]; [31]): ≥ 20 µM
Kd (HLA-A*31:01; [31]): 0.0615 µM

Sequence: IIAVARKHH
IC50 (HLA-A*03:01 [19]; source organism: Variola virus): 27.7 µM
IC50 (HLA-B*15:01 [20]; source organism: Variola virus): 27.2 µM
IC50 (HLA-B*07:02 [21]; source organism: Variola virus): 59.7 µM

Sequence: VGHMMVIFR
IC50 (HLA-A*11:01 [22]): 0.196 µM
IC50 (HLA-A*03:01 [19]; [27]): ≥ 218 µM
IC50 (HLA-B*08:01 [1]; [27]): ≥ 185 µM
IC50 (HLA-A*24:02): ≥ 271 µM
IC50 (HLA-A*02:01 [2]): 3.68 µM
IC50 (HLA-B*15:01 [20]; [27]): ≥ 1340 µM

Sequence: KGPDKLQVY
Kd (HLA-A*11:01 [4]; [32]): ≥ 20 µM
Kd (HLA-A*26:01 [5]; [32]): ≥ 20 µM
Kd (HLA-A*69:01 [6]; [32]): ≥ 20 µM
Kd (HLA-A*03:01 [7]; [32]): ≥ 20 µM
Kd (HLA-B*08:01 [8]; [32]): ≥ 20 µM
Kd (HLA-B*27:05; [32]): ≥ 20 µM
Kd (HLA-B*40:01; [32]): ≥ 20 µM
Kd (HLA-B*44:02; [32]): ≥ 20 µM
Kd (HLA-A*01:01 [10]; [32]): ≥ 20 µM
Kd (HLA-A*02:01 [11]; [32]): ≥ 20 µM
Kd (HLA-A*30:01; [32]): 12.3 µM
Kd (HLA-B*58:01 [12]; [32]): ≥ 20 µM
Kd (HLA-B*15:01 [13]; [32]): 2.42 µM
Kd (HLA-B*07:02 [14]; [32]): ≥ 20 µM
Kd (HLA-A*31:01; [32]): ≥ 20 µM

Sequence: RAFSLYMTL
Kd (HLA-C*15:02; [33]): 0.466 µM
Kd (HLA-A*24:03 [15]; [33]): 0.0586 µM

Sequence: TAKVKNEVN
IC50 (HLA-B*08:01 [1]; [27]): ≥ 365 µM

Kd (HLA-A*11:01 [4]; [34]): 0.0487 µM
Kd (HLA-A*26:01 [5]; [35]): ≥ 20 µM
Kd (HLA-A*69:01 [6]; [35]): ≥ 20 µM
Kd (HLA-A*03:01 [7]; [34]): 0.213 µM
Kd (HLA-B*08:01 [8]; [34]): 10.6 µM
Kd (HLA-A*24:03 [9]; [35]): ≥ 20 µM
Kd (HLA-B*27:05; [35]): ≥ 20 µM
Kd (HLA-B*40:01; [35]): ≥ 20 µM
Kd (HLA-A*01:01 [10]; [34]): 2.36 µM
Kd (HLA-A*02:01 [11]; [34]): 11.5 µM
Kd (HLA-A*30:01; [34]): 0.0138 µM
Kd (HLA-B*58:01 [12]; [35]): ≥ 20 µM
Kd (HLA-B*15:01 [13]; [35]): ≥ 20 µM
Kd (HLA-B*07:02 [14]; [35]): ≥ 20 µM
Kd (HLA-A*31:01; [34]): 0.265 µM
Sequence: YTFCRLNVK

Kd (HLA-C*15:02; [36]): ≥ 20 µM
Kd (HLA-B*39:01; [36]): 0.0075 µM
Sequence: AKIEAPLLL

Kd (HLA-B*51:01; [36]): ≥ 20 µM
Kd (HLA-B*58:01 [3]; [36]): 0.0083 µM
Sequence: LAWQRTLKW

Sequence: VLASGPGPF
Kd (HLA-C*05:01; [37]): ≥ 20 µM
Kd (HLA-B*46:01 [23]): ≥ 20 µM
Kd (HLA-B*15:01 [13]; [37]): 0.0184 µM
Kd (HLA-B*07:02 [14]; [37]): 9.38 µM

Sequence: VSSFQDILL
Kd (HLA-B*58:01 [3]; source organism: Influenza A virus (A/X-31(H3N2))): 0.687 µM

Sequence: EVNSFKAAL
IC50 (HLA-B*08:01 [1]; [27]): ≥ 85.9 µM
IC50 (HLA-A*24:02): 33.2 µM
IC50 (HLA-A*02:01 [2]): ≥ 236 µM
IC50 (HLA-B*07:02 [21]; [27]): ≥ 139 µM

Sequence: MASENSSAM
IC50 (HLA-A*02:01 [2]): 12.1 µM
IC50 (HLA-B*15:01 [20]; [27]): 21.9 µM
IC50 (HLA-B*07:02 [21]; [27]): 28.4 µM

Sequence: FINKLNGAM
IC50 (HLA-B*08:01 [1]; [38]): ≥ 138 µM
IC50 (HLA-B*15:01 [20]; [38]): 27.6 µM

Kd (HLA-C*05:01; source organism: Homo sapiens): 0.005 µM
Kd (HLA-A*01:01 [10]; source organism: Homo sapiens): 0.0009 µM
Kd (HLA-B*51:01; source organism: Homo sapiens): ≥ 20 µM
Kd (HLA-A*26:01 [24]): ≥ 20 µM
Kd (HLA-A*69:01 [25]): ≥ 20 µM
Kd (HLA-B*27:03): ≥ 20 µM
Kd (HLA-B*39:01; source organism: Homo sapiens): ≥ 20 µM
Kd (HLA-B*57:01): ≥ 20 µM
Kd (HLA-B*46:01 [26]): ≥ 20 µM
Kd (HLA-B*18:01): ≥ 20 µM
Kd (HLA-B*15:01 [18]; source organism: Homo sapiens): ≥ 20 µM
Sequence: VTDTALAYF

Sequence: NTPVYKLDI
IC50 (HLA-B*07:02 [21]; [27]): ≥ 119 µM

Sequence: LHPLARTAK
IC50 (HLA-A*11:01 [22]): 15.4 µM
IC50 (HLA-A*03:01 [19]; [27]): 34.6 µM
IC50 (HLA-B*08:01 [1]; [27]): ≥ 277 µM
IC50 (HLA-B*07:02 [21]; [27]): ≥ 158 µM
